Source: patent US7604990

Columns and labels:
PDGFR-α (human) = PDGFR-α (human) (UniProt P16234); test: cell-based or functional assay
PDGFR-β (human) = PDGFR-β (human) (UniProt P09619); test: cell-based or functional assay
Chain of PDGFR-β (human) (P09619 33-1106): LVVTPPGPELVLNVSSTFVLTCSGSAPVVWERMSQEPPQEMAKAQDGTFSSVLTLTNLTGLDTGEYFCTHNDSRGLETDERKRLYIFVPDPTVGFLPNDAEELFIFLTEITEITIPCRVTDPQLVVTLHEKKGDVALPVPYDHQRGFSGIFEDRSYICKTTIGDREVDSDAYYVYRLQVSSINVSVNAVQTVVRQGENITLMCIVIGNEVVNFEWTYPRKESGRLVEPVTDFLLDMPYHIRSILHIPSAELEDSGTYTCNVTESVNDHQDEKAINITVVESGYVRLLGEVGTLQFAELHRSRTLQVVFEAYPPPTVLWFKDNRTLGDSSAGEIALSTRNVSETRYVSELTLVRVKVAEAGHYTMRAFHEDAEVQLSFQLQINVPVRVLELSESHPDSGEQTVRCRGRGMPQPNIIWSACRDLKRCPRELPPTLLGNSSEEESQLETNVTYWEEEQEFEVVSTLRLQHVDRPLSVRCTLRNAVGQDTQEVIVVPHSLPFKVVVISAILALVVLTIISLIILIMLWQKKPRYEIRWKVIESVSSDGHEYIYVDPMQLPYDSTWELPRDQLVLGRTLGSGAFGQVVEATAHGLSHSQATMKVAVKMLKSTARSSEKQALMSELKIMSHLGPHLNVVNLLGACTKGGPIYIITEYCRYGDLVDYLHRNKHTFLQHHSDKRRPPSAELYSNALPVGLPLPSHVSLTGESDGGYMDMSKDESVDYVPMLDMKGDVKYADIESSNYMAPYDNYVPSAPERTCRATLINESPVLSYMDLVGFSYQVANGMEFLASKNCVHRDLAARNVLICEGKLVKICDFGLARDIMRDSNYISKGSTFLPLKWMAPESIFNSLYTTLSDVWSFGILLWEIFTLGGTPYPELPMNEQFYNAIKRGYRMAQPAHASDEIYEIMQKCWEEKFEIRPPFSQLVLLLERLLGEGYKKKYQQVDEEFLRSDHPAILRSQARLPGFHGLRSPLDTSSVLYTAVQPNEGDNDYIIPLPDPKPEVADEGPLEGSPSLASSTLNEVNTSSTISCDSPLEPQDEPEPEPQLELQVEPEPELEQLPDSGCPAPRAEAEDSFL

Chain of PDGFR-α (human) (P16234 24-1089): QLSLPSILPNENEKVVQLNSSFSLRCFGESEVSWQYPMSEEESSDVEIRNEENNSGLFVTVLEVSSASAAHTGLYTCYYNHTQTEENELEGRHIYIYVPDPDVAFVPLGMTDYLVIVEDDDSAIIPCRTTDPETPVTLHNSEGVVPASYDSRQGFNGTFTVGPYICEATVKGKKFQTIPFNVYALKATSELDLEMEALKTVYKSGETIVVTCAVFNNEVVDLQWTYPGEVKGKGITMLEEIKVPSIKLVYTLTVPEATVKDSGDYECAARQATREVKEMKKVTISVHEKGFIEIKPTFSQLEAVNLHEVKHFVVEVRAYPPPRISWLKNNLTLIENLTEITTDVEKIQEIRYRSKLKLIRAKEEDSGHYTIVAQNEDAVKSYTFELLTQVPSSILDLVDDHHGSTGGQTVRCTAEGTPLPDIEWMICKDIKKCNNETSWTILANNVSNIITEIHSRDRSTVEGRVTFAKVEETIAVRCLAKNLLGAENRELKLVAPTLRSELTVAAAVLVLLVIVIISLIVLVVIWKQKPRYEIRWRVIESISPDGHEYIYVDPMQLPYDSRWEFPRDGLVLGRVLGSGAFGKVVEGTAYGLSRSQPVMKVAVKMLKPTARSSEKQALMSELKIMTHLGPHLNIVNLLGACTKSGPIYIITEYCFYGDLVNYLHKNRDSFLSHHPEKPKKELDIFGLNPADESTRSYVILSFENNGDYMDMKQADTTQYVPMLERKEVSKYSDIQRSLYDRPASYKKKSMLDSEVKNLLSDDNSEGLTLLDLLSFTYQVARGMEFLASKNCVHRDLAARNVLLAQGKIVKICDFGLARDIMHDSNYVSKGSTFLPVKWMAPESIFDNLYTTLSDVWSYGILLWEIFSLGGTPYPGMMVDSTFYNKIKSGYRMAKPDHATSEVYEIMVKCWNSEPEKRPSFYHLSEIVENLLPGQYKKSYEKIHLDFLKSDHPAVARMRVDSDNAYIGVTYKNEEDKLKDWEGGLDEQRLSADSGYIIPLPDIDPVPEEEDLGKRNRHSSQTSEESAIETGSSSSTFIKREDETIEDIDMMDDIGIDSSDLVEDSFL

GCTM2 expression (ELISA-based assay; hES cells treated 2 weeks in serum-free medium with S1P plus PDGF-AA) (PDGFR-α (human))	GCTM2 expression (ELISA-based assay; hES cells treated 2 weeks in serum-free medium with S1P plus PDGF-AB) (% more GCTM2+ than the controls) (PDGFR-α (human))	GCTM2 expression (ELISA-based assay; hES cells treated 2 weeks in serum-free medium with S1P plus PDGF-AB) (% more GCTM2+ than the controls) (PDGFR-β (human))	Substance
220 % of control	–	–	Human PDGF-AA (from UniProt P04085 87-211) (ligand)
–	153	153	Human PDGF-AB (from UniProt P04085 87-211; P01127 82-190) (ligand)
